Measured values published in US7402417B2, “P450 oxygenases and methods of use” (Washington State University Research Foundation, priority 2003, dated 2008).

Key:
[1] = substrate: C=C1CCC[C@@]2(C)CCC3=C(C)CC[C@@H](C[C@H]12)C3(C)C; experiment: Kinetic evaluation of taxadiene isomers, average of recombinant and T. media microsomes (FIG. 4); type: biochemical, Taxus; conditions: other: average of recombinant (Sf9) and T. media microsomes; substrate 1 to 500 μM
Experimental: (§1) Taxa-4(20),11(12)-diene (◯) and taxa-4(5),11(12)-diene (●) were evaluated with microsomes from S. formgiperda cells enriched with 50 pmol recombinant taxoid 5α-hydroxylase (A), and with microsomes from T. media suspension cells containing about 50 pmol of total native cytochrome P450 (B). Substrate Concentration range was varied from 1 to 500 μM in all cases.

[2] = substrate: [H][C@]12CCC(C)=C(CC[C@]3(C)CCC=C(C)[C@@]3([H])C1)C2(C)C; experiment: as above; type: biochemical, Taxus; conditions: other: average of recombinant (Sf9) and T. media microsomes; substrate 1 to 500 μM
Experimental: as §1

[3] = substrate: C=C1CCC[C@@]2(C)CCC3=C(C)CC[C@@H](C[C@H]12)C3(C)C; experiment: Kinetic evaluation with Sf9 microsomes enriched in recombinant 5α-hydroxylase (radio-HPLC, Michaelis-Menten); type: biochemical, Taxus cuspidata; conditions: other: Sf9 microsomes, recombinant enzyme, 200 μM NADPH plus regenerating system; pH 7.5
Experimental: (§2) Kinetic constants for both isomers were next evaluated (at a saturating 200 μM concentration of NADPH plus regenerating system; Shimada and Yamazai, Meth. Mol. Biol., 107:85-93, 1998). The isolated microsomes were resuspended in 50 mM Hepes, pH 7.5, containing 1 mM DTT and 5% (v/v) glycerol, and the 1 ml reactions (˜600 μg protein, 50 μM substrate dissolved in DMSO, and the requisite cofactors (e.g., NADPH plus regenerating system) were run as described previously, with the identical protocols for product analysis (Jennewein et al., Proc. Natl. Acad. Sci. USA, 98:13595-13600, 2001). DMSO was without influence on the reaction. For kinetic evaluation, following the establishment of linear reaction conditions in protein concentration and time, the response to substrate concentration was plotted by the Michaelis-Menten method (Sigmaplot 7.0) using the calibrated radio-HPLC protocol for product determination Data from three independent experiments were pooled and the line of best fit taken (R^2>0.99).

[4] = substrate: [H][C@]12CCC(C)=C(CC[C@]3(C)CCC=C(C)[C@@]3([H])C1)C2(C)C; experiment: as above; type: biochemical, Taxus cuspidata; conditions: other: Sf9 microsomes, recombinant enzyme, 200 μM NADPH plus regenerating system; pH 7.5
Experimental: as §2

B1: taxoid 5α-hydroxylase (Taxus cuspidata) (protein)
chain: MDALYKSTVAKFNEVTQLDCSTESFSIALSAIAGILLLLLLFRSKRHSSLKLPPGKLGIPFIGESFIFLRALRSNSLEQFFDERVKKFGLVFKTSLIGHPTVVLCGPAGNRLILSNEEKLVQMSWPAQFMKLMGENSVATRRGEDHIVMRSALAGFFGPGALQSYIGKMNTEIQSHINEKWKGKDEVNVLPLVRELVFNISAILFFNIYDKQEQDRLHKLLETILVGSFALPIDLPGFGFHRALQGRAKLNKIMLSLIKKRKEDLQSGSATATQDLLSVLLTFRDDKGTPLTNDEILDNFSSLLHASYDTTTSPMALIFKLLSSNPECYQKVVQEQLEILSNKEEGEEITWKDLKAMKYTWQVAQETLRMFPPVFGTFRKAITDIQYDGYTIPKGWKLLWTTYSTHPKDLYFNEPEKFMPSRFDQEGKHVAPYTFLPFGGGQRSCVGWEFSKMEILLFVHHFVKTFSSYTPVDPDEKISGDPLPPLPSKGFSIKLFPRP
B1 showed a Km [1] of 21.5 µM and a Km [2] of 36 µM.

B2: recombinant taxoid 5α-hydroxylase (clone S1) (Taxus cuspidata) (protein)
chain: MDALYKSTVAKFNEVTQLDCSTESFSIALSAIAGILLLLLLFRSKRHSSLKLPPGKLGIPFIGESFIFLRALRSNSLEQFFDERVKKFGLVFKTSLIGHPTVVLCGPAGNRLILSNEEKLVQMSWPAQFMKLMGENSVATRRGEDHIVMRSALAGFFGPGALQSYIGKMNTEIQSHINEKWKGKDEVNVLPLVRELVFNISAILFFNIYDKQEQDRLHKLLETILVGSFALPIDLPGFGFHRALQGRAKLNKIMLSLIKKRKEDLQSGSATATQDLLSVLLTFRDDKGTPLTNDEILDNFSSLLHASYDTTTSPMALIFKLLSSNPECYQKVVQEQLEILSNKEEGEEITWKDLKAMKYTWQVAQETLRMFPPVFGTFRKAITDIQYDGYTIPKGWKLLWTTYSTHPKDLYFNEPEKFMPSRFDQEGKHVAPYTFLPFGGGQRSCVGWEFSKMEILLFVHHFVKTFSSYTPVDPDEKISGDPLPPLPSKGFSIKLFPETIVN
notes: the S1 ORF was amplified using Pfu DNA polymerase and gene-specific primers containing a BamHI site immediately upstream of the start codon; made in house; host or cells: Spodoptera frugiperda Sf9 cells (baculovirus, pFastBac1); microsomal membranes
In the case of B2, the Km [3] is reported as 16 ± 3.2 µM and the Km [4] is reported as 24 ± 2.5 µM.
